Experimental data reported in article PMC7863765.

Tests used:
[1] = molecular target: phosphorylated SARS-CoV-2 N construct pN.1-211 (SARS-CoV-2) (UniProt P0DTC9); assay: SEC; observed qualitatively; Figure 6(C) and data not shown
[2] = molecular target: phosphorylated SARS-CoV-2 N construct pN.1-238 (SARS-CoV-2) (UniProt P0DTC9); assay: SEC-MALS

Question: Which results are given for “untagged full-length human 14-3-3γ (from UniProt P61981 1-247) (natural protein)”?
Answer: stoichiometry N (14-3-3γ chains per pN.1-211 chain (2:1)) [1]: 2; stoichiometry N (14-3-3γ chains per pN.1-238 chain (2:1)) [2]: 2
